Measured values published in the supplement of paper PMC7877785.
± gives the uncertainty stated by the source.

Test: self-splicing fitness, log relative to wild type (ln ratio); higher = more splicing; Tetrahymena group I intron in knt gene, E. coli kanamycin selection, DiMSum; sequences stand for … in CUCUCU…GGAGGGAAAAGUUAUCAGGCAUGCACCUGGUAGCUAGUCUUUAAACCAAUAGAUUGCAUCGGUUUAAAAGGCAAGACCGUCAAAUUGCGGGAAAGGGGUCAACAGCCGUUCAGUACCAAGUCUCAGGGGAAACUUUGAGAUGGCCUUGCAAAGGGUAUGGUAAUAAGCUGACGGACAUGGUCCUAACCACGCAGCCAAGUCCUAAGUCAACAGAUCUUCUGUUGAUAUGGAUGCAGUUCACAGACUAAAUGUCGGUCGGGGAAGAUGUAUUCUUCUCAUAAGAUAUAGUCGGACCUCUCCUUAAUGGGAGCUAGCGGAUGAAGUGAUGCAACACUGGAGCCGCUGGGAACUAAUUUGUAUGCGAAAGUAUAUUGAUUAGUUUUGGAGUACUCGUGGUCG
Summary of the method: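 DiMSum derived fitness as the error-weighted combination of fold changes across replicates, kanamycin versus no kanamycin, normalised to wild type. E. coli BL21(DE3) held the library, which randomised all eight P1ex-region intron nucleotides within the knt kanamycin-resistance gene on pET-22b(+). Six replicate transformations grew overnight at 37°C or 30°C on LB agar with or without 25 μg/mL kanamycin, also containing 100 μg/mL carbenicillin, 50 μM IPTG and 0.2% rhamnose, and pooled colonies were amplicon-sequenced on an Illumina HiSeq 2500.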

Sequence	self-splicing fitness (ln) (30 °C)	self-splicing fitness (ln) (37 °C)
UGAAAGCAAUAUUACGCGAC	-2.33 ± 0.42	-2.08 ± 0.38
UGAAAGCAAUAUUACGCGAG	-1.63 ± 0.11	-0.0143 ± 0.1
UGAAAGCAAUAUUACGCUCU	-2.48 ± 0.17	-1.37 ± 0.18
UGAAAGCAAUAUUACGGAAC	-2.58 ± 0.22	-0.53 ± 0.25
UGAAAGCAAUAUUACGGAGG	-3.75 ± 0.2	-2.72 ± 0.26
UGAAAGCAAUAUUACGGCAC	-3.23 ± 0.16	-1.48 ± 0.14
UGAAAGCAAUAUUACGGCCA	-0.0769 ± 0.21	0.0533 ± 0.28
UGAAAGCAAUAUUACGGCUA	0.376 ± 0.092	0.259 ± 0.11
UGAAAGCAAUAUUACGUAUC	-3.86 ± 0.28	-2.38 ± 0.25
UGAAAGCAAUAUUACGUGAU	-0.954 ± 0.077	-1.45 ± 0.13
UGAAAGCAAUAUUACGUGCC	-0.125 ± 0.12	-0.826 ± 0.15
UGAAAGCAAUAUUACGUUAA	-1.45 ± 0.089	-0.938 ± 0.09
UGAAAGCAAUAUUACGUUAG	-1.1 ± 0.086	-0.448 ± 0.096
UGAAAGCAAUAUUACGUUCU	-1.37 ± 0.11	-0.484 ± 0.1
UGAAAGCAAUAUUACGUUGA	-3.13 ± 0.17	-1.23 ± 0.15
UGACAGCAAUAUUACGAAGA	-3.28 ± 0.27	-0.756 ± 0.16
UGACAGCAAUAUUACGAGCA	-0.681 ± 0.051	0.236 ± 0.064
UGACAGCAAUAUUACGAGGG	-3.73 ± 0.44	-2.11 ± 0.35
UGACAGCAAUAUUACGAUGC	-3.94 ± 0.28	-2.72 ± 0.28
UGACAGCAAUAUUACGAUUG	-0.875 ± 0.061	-0.525 ± 0.067
UGACAGCAAUAUUACGCAAU	-2.38 ± 0.12	-1.84 ± 0.16
UGACAGCAAUAUUACGCACG	-0.996 ± 0.093	-0.312 ± 0.14
UGACAGCAAUAUUACGCCCA	0.217 ± 0.12	0.269 ± 0.16
UGACAGCAAUAUUACGCCCG	-0.421 ± 0.12	0.601 ± 0.2
UGACAGCAAUAUUACGCCGA	-1.44 ± 0.17	-0.0813 ± 0.17

Sequence	self-splicing fitness (ln) (30 °C)	self-splicing fitness (ln) (37 °C)
UGACAGCAAUAUUACGCGCC	-1.63 ± 0.12	-0.153 ± 0.15
UGACAGCAAUAUUACGCGCG	-1.15 ± 0.1	-0.132 ± 0.11
UGACAGCAAUAUUACGCUGC	-4.45 ± 0.25	-2.65 ± 0.18
UGACAGCAAUAUUACGGAAG	-2.29 ± 0.11	-1.19 ± 0.12
UGACAGCAAUAUUACGGACA	-0.474 ± 0.08	0.431 ± 0.12
UGACAGCAAUAUUACGGCAU	-1.88 ± 0.073	-0.478 ± 0.087
UGACAGCAAUAUUACGGCGU	-2.71 ± 0.15	-1.67 ± 0.16
UGACAGCAAUAUUACGGGAG	-1.59 ± 0.062	-0.0844 ± 0.061
UGACAGCAAUAUUACGGGCA	-0.0919 ± 0.079	0.689 ± 0.093
UGACAGCAAUAUUACGGGCG	-0.223 ± 0.1	0.3 ± 0.11
UGACAGCAAUAUUACGGGUG	-0.383 ± 0.052	-0.732 ± 0.074
UGACAGCAAUAUUACGGUAC	-4.6 ± 0.36	-2.85 ± 0.38
UGACAGCAAUAUUACGGUCU	-1.58 ± 0.065	-0.946 ± 0.072
UGACAGCAAUAUUACGUACA	-0.21 ± 0.087	0.281 ± 0.12
UGACAGCAAUAUUACGUACU	-0.423 ± 0.064	0.165 ± 0.085
UGACAGCAAUAUUACGUAGC	-4.08 ± 0.29	-2.28 ± 0.28
UGACAGCAAUAUUACGUCAA	-2.37 ± 0.18	-0.896 ± 0.11
UGACAGCAAUAUUACGUCCA	-0.629 ± 0.061	0.245 ± 0.1
UGAGAGCAAUAUUACGACUU	-3.87 ± 0.22	-2.31 ± 0.18
UGAGAGCAAUAUUACGAGUC		-3.22 ± 0.47
UGAGAGCAAUAUUACGCAUA	-3.24 ± 0.44	
UGAGAGCAAUAUUACGCCGA	-1.96 ± 0.36	
UGAGAGCAAUAUUACGCGAG	-3.56 ± 0.37	-2.34 ± 0.22
UGAGAGCAAUAUUACGCGCC	-1.44 ± 0.33	-1.09 ± 0.47
UGAGAGCAAUAUUACGCGUA	-2.26 ± 0.26	-2.4 ± 0.31

Sequence	self-splicing fitness (ln) (30 °C)	self-splicing fitness (ln) (37 °C)
UGAGAGCAAUAUUACGGAAA		-1.92 ± 0.39
UGAGAGCAAUAUUACGGAAU		1.01 ± 0.35
UGAGAGCAAUAUUACGGAGC	-2.21 ± 0.18	-1.94 ± 0.19
UGAGAGCAAUAUUACGGCUA	-1.67 ± 0.25	-0.532 ± 0.35
UGAGAGCAAUAUUACGGGGC	-2.38 ± 0.39	-2.17 ± 0.46
UGAGAGCAAUAUUACGGGUC		-1.33 ± 0.45
UGAGAGCAAUAUUACGGGUU	-2.45 ± 0.24	-2.85 ± 0.31
UGAGAGCAAUAUUACGGUCG	-1.56 ± 0.083	-0.464 ± 0.11
UGAGAGCAAUAUUACGGUGA	-2.54 ± 0.36	-2.73 ± 0.44
UGAGAGCAAUAUUACGGUGU	-2.98 ± 0.24	-2.36 ± 0.29
UGAGAGCAAUAUUACGUAAG	-3.27 ± 0.23	-1.67 ± 0.21
UGAGAGCAAUAUUACGUACC	-2.65 ± 0.36	
UGAGAGCAAUAUUACGUCCU	-3.05 ± 0.24	-2.57 ± 0.49
UGAGAGCAAUAUUACGUGAG	-2.43 ± 0.14	-1.83 ± 0.2
UGAGAGCAAUAUUACGUGGU	-2.67 ± 0.14	-2.61 ± 0.2
UGAGAGCAAUAUUACGUGUA	-2.07 ± 0.13	
UGAGAGCAAUAUUACGUGUU	-3.49 ± 0.25	-1.36 ± 0.14
UGAUAGCAAUAUUACGAAAG	-3 ± 0.14	-1.67 ± 0.15
UGAUAGCAAUAUUACGAAGU	-3.67 ± 0.25	-3.22 ± 0.26
UGAUAGCAAUAUUACGAAUA	-3.62 ± 0.47	-0.595 ± 0.2
UGAUAGCAAUAUUACGACUU	-0.653 ± 0.17	-0.431 ± 0.12
UGAUAGCAAUAUUACGAUUU	-1.76 ± 0.1	-1.13 ± 0.12
UGAUAGCAAUAUUACGCACC	-1.02 ± 0.15	-0.277 ± 0.22
UGAUAGCAAUAUUACGCAGA	-3.31 ± 0.24	-1.38 ± 0.11
UGAUAGCAAUAUUACGCAGG	-3.38 ± 0.24	-2.27 ± 0.36

Sequence	self-splicing fitness (ln) (30 °C)	self-splicing fitness (ln) (37 °C)
UGAUAGCAAUAUUACGCCAA	-3.37 ± 0.27	-1.85 ± 0.15
UGAUAGCAAUAUUACGCCAC		-0.614 ± 0.29
UGAUAGCAAUAUUACGCCCG	0.00499 ± 0.21	-0.455 ± 0.2
UGAUAGCAAUAUUACGCCUA	-0.439 ± 0.15	-0.227 ± 0.16
UGAUAGCAAUAUUACGCGGG	-3.28 ± 0.31	-1.7 ± 0.25
UGAUAGCAAUAUUACGCUAA	-1.82 ± 0.2	-0.0947 ± 0.25
UGAUAGCAAUAUUACGCUUC		-2.45 ± 0.35
UGAUAGCAAUAUUACGCUUG	-0.924 ± 0.091	0.0889 ± 0.14
UGAUAGCAAUAUUACGGAGA	-2.83 ± 0.33	-1.68 ± 0.42
UGAUAGCAAUAUUACGGAUG	-1.33 ± 0.1	-0.978 ± 0.12
UGAUAGCAAUAUUACGGCAG	0.188 ± 0.17	0.0746 ± 0.18
UGAUAGCAAUAUUACGGCCA	-0.243 ± 0.14	0.424 ± 0.2
UGAUAGCAAUAUUACGGCUC	-2.21 ± 0.15	-1.29 ± 0.17
UGAUAGCAAUAUUACGGGAU	-2.03 ± 0.17	-2.15 ± 0.26
UGAUAGCAAUAUUACGGGUU	-3.88 ± 0.23	-1.98 ± 0.17
UGAUAGCAAUAUUACGGUAC		-2.12 ± 0.42
UGAUAGCAAUAUUACGUAAU	-4.31 ± 0.46	-1.99 ± 0.21
UGAUAGCAAUAUUACGUGUC	-3.92 ± 0.28	-2.49 ± 0.26
UGAUAGCAAUAUUACGUUAA	-2.02 ± 0.21	-2.15 ± 0.26
UGAUAGCAAUAUUACGUUAC	-3.01 ± 0.31	-1.08 ± 0.22
UGCAAGCAAUAUUACGAAAG	-2.6 ± 0.12	-1.53 ± 0.13
UGCAAGCAAUAUUACGAACA	-1.23 ± 0.094	0.193 ± 0.13
UGCAAGCAAUAUUACGAACU	-0.489 ± 0.14	0.0308 ± 0.12
